Patent publication US20200249231

How the values were obtained:
[1] = molecular target: T1, RYSYK (5-mer on peptide array)
T1 chain: RYSYK

Z-[GGGQRQRQGGGG] = molecular target: T2, Z-[GGGQRQRQGGGG]
T2 chain: GGGQRQRQGGGG

[2] = molecular target: T3, RYSQR (5-mer on peptide array)
T3 chain: RYSQR

[3] = molecular target: T4, QYRQR (5-mer on peptide array)
T4 chain: QYRQR

[4] = molecular target: T5, EYALQ (5-mer on peptide array)
T5 chain: EYALQ

[5] = molecular target: T6, YKSWK (5-mer on peptide array)
T6 chain: YKSWK

[6] = molecular target: T7, YRQTR (5-mer on peptide array)
T7 chain: YRQTR

[7] = molecular target: T8, DYVAQ (5-mer on peptide array)
T8 chain: DYVAQ

[8] = molecular target: T9, EYVAQ (5-mer on peptide array)
T9 chain: EYVAQ

[9] = molecular target: T10, YRYRQ (5-mer on peptide array)
T10 chain: YRYRQ

[10] = molecular target: T11, DYFLQ (5-mer on peptide array)
T11 chain: DYFLQ

[11] = molecular target: T12, YKYRQ (5-mer on peptide array)
T12 chain: YKYRQ

[12] = molecular target: T13, RFYSK (5-mer on peptide array)
T13 chain: RFYSK

[13] = molecular target: T14, RQRQR (5-mer on peptide array)
T14 chain: RQRQR

[14] = molecular target: T15, Thermus thermophilus SlyD FKBP domain with grafted KalbTG Q-tag RYRQR, 8xHis
T15 chain: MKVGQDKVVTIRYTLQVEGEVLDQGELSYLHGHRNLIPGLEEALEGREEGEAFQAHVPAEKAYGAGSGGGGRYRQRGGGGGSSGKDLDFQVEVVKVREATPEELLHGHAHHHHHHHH

[15] = molecular target: T16, RYRQR (5-mer on peptide array)
T16 chain: RYRQR

Z-[GGGRYESKGGGG] = molecular target: T17, Z-[GGGRYESKGGGG]
T17 chain: GGGRYESKGGGG

Z-[GGGDYALQGGGG] = molecular target: T18, Z-[GGGDYALQGGGG]
T18 chain: GGGDYALQGGGG

[16] = molecular target: T19, EWALQ (5-mer on peptide array)
T19 chain: EWALQ

[17] = molecular target: T20, DWVAQ (5-mer on peptide array)
T20 chain: DWVAQ

Z-[GGGYRYRQGGGG] = molecular target: T21, Z-[GGGYRYRQGGGG]
T21 chain: GGGYRYRQGGGG

[18] = molecular target: T22, YQRQR (5-mer on peptide array)
T22 chain: YQRQR

[19] = molecular target: T23, YKYAK (5-mer on peptide array)
T23 chain: YKYAK

[20] = molecular target: T24, YKSFK (5-mer on peptide array)
T24 chain: YKSFK

[21] = molecular target: T25, EYFLQ (5-mer on peptide array)
T25 chain: EYFLQ

[22] = molecular target: T26, LRYRQ (5-mer on peptide array)
T26 chain: LRYRQ

[23] = molecular target: T27, RYTQR (5-mer on peptide array)
T27 chain: RYTQR

Z-[GGGRYSKYGGGG] = molecular target: T28, Z-[GGGRYSKYGGGG]
T28 chain: GGGRYSKYGGGG

[24] = molecular target: T29, PYKYK (5-mer on peptide array)
T29 chain: PYKYK

B1: Kutzneria albida microbial transglutaminase, activated enzyme (KalbTGt3) (protein)
chain: APLAPPLAEDRSYRTWRVEDYVEAWERYHGREMTEDERENLARGCIGVTVVNLNREDLSNPPLNLSFGSLRTAEAVQAALNKIVDTHPSPAQYEAAVAKDPILKRLKNVVKALPSWIDSAKLKASIFSKRFYSWQNPDWSEERAHTTYRPDRETDQVDMSTYRYRARPGYVNFDYGWFDQDTNTWWHANHEEPRMVVYQSTLRHYSRPLQDFDEQVFTVAFAKKDGGGSGHHHHHHHH
In the case of B1, the “5-mer peptide array, incorporation of biotinylated glutamine donor Z-APRYRQRAAGGG-PEG-biotin” value [1] is reported as “the top 17 lysine-donor substrates identified on the 5-mer peptide array with KalbTG”, the Reaction rate in solution (pmol/s), GLDH-coupled assay (Z-[GGGQRQRQGGGG]) is reported as 2.98 pmol/s and the “5-mer peptide array, incorporation of biotinylated amine donor” value [2] is reported as “the top 22 glutamine-donor substrates identified on the 5-mer peptide array with KalbTG”. The Array signal (log2) [2] was 8.93 log2, the “5-mer peptide array, incorporation of biotinylated amine donor” value [3] was “the top 22 glutamine-donor substrates identified on the 5-mer peptide array with KalbTG” and the Array signal (log2) [3] was 8.7 log2. For the same protein, the “5-mer peptide array signal with KalbTG” value [4] was “exhibited relatively lower signal on the KalbTG array”, the “5-mer peptide array, incorporation of biotinylated glutamine donor Z-APRYRQRAAGGG-PEG-biotin” value [5] was “the top 17 lysine-donor substrates identified on the 5-mer peptide array with KalbTG” and the “5-mer peptide array, incorporation of biotinylated amine donor” value [6] was “the top 22 glutamine-donor substrates identified on the 5-mer peptide array with KalbTG”. The “5-mer peptide array signal with KalbTG” value [7] was “exhibited relatively lower signal on the KalbTG array”, the “5-mer peptide array signal with KalbTG” value [8] was “exhibited relatively lower signal on the KalbTG array” and the “5-mer peptide array, incorporation of biotinylated amine donor” value [9] was “the top 22 glutamine-donor substrates identified on the 5-mer peptide array with KalbTG”. The Array signal (log2) [9] was 8.99 log2, the “5-mer peptide array signal with KalbTG” value [10] was “exhibited relatively lower signal on the KalbTG array” and the “5-mer peptide array, incorporation of biotinylated amine donor” value [11] was “the top 22 glutamine-donor substrates identified on the 5-mer peptide array with KalbTG”. The Array signal (log2) [11] was 8.7 log2, the “5-mer peptide array, incorporation of biotinylated glutamine donor Z-APRYRQRAAGGG-PEG-biotin” value [12] was “the top 17 lysine-donor substrates identified on the 5-mer peptide array with KalbTG” and the “5-mer peptide array, incorporation of biotinylated amine donor” value [13] was “the top 22 glutamine-donor substrates identified on the 5-mer peptide array with KalbTG”. For the same protein, the Array signal (log2) [13] was 8.84 log2, the “labeling yield with KalbTG K-tag-Cy3 (SDS-PAGE, in-gel fluorescence)” value [14] was “approximately 70% yield of a labeled protein species after 15 minutes” and the “5-mer peptide array, incorporation of biotinylated amine donor” value [15] was “the top 22 glutamine-donor substrates identified on the 5-mer peptide array with KalbTG”. For the same protein, the Array signal (log2) [15] was 8.96 log2, the Reaction Rate in Solution (pmol s^-1), GLDH-coupled assay with 200 µM glutamine donor (Z-[GGGRYESKGGGG]) was 4.47 pmol/s and the GLDH-coupled activity assay (Z-[GGGDYALQGGGG]) was “KalbTG exhibited no activity with preferred S. mobaraensis MTG substrates DYALQ (SEQ ID NO: 22) and MLAQG (SEQ ID NO: 13)”. The Reaction rate in solution (pmol/s), GLDH-coupled assay (Z-[GGGDYALQGGGG]) was -0.05 pmol/s, the “5-mer peptide array signal with KalbTG” value [16] was “exhibited relatively lower signal on the KalbTG array” and the “5-mer peptide array signal with KalbTG” value [17] was “exhibited relatively lower signal on the KalbTG array”. The KM (Z-[GGGYRYRQGGGG]) was 2150 µM, the Reaction rate in solution (pmol/s), GLDH-coupled assay (Z-[GGGYRYRQGGGG]) was 3.52 pmol/s and the Vmax (Z-[GGGYRYRQGGGG]) was 73.2 pmol/s. The kcat (Z-[GGGYRYRQGGGG]) was 1.92 s⁻¹, the kcat/KM (Z-[GGGYRYRQGGGG]) was 890 M⁻¹ s⁻¹ and the “5-mer peptide array, incorporation of biotinylated amine donor” value [18] was “the top 22 glutamine-donor substrates identified on the 5-mer peptide array with KalbTG”. For the same protein, the “5-mer peptide array, incorporation of biotinylated glutamine donor Z-APRYRQRAAGGG-PEG-biotin” value [19] was “the top 17 lysine-donor substrates identified on the 5-mer peptide array with KalbTG”, the “5-mer peptide array, incorporation of biotinylated glutamine donor Z-APRYRQRAAGGG-PEG-biotin” value [20] was “the top 17 lysine-donor substrates identified on the 5-mer peptide array with KalbTG” and the “5-mer peptide array signal with KalbTG” value [21] was “exhibited relatively lower signal on the KalbTG array”. For the same protein, the “5-mer peptide array, incorporation of biotinylated amine donor” value [22] was “the top 22 glutamine-donor substrates identified on the 5-mer peptide array with KalbTG”, the “5-mer peptide array, incorporation of biotinylated amine donor” value [23] was “the top 22 glutamine-donor substrates identified on the 5-mer peptide array with KalbTG” and the Reaction Rate in Solution (pmol s^-1), GLDH-coupled assay with 200 µM glutamine donor (Z-[GGGRYSKYGGGG]) was 3.89 pmol/s. For the same protein, the “5-mer peptide array, incorporation of biotinylated glutamine donor Z-APRYRQRAAGGG-PEG-biotin” value [24] was “the top 17 lysine-donor substrates identified on the 5-mer peptide array with KalbTG”.
